Here are results for eleven substances from US20140212436A1.

Chain of FcγRIIaR (human) (P12318 34-217 H167R limits assumed): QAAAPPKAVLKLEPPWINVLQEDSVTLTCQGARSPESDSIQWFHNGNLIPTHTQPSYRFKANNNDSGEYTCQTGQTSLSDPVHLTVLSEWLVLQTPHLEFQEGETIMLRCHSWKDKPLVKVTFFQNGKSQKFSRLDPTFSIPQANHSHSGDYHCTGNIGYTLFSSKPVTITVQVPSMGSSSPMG

The first assay has as its target FcγRIIaR (human) (UniProt P12318). Briefly: Biacore.
In turn, G236D/S267E/L328F (antibody) returned a Fold of 59.9 and a Kd of 14.3 nM.
For L235F/S267E (antibody) the same measures were 32.5 and 26.4 nM.
The matching figures for IgG1/2ELLGG_S267E/L328F (antibody): 269 and 3.19 nM.
The matching figures for L234E/S267E/L328F (antibody): 174 and 4.93 nM.
With G236D/S239D/S267E (antibody), the Fold is 26.7 and the Kd was 32.2 nM.
The matching figures for S267E/L328Y (antibody): 122 and 7.06 nM.
In turn, G236D/S267E/H268E (antibody) displayed a Fold of 29.9 and a Kd of 28.7 nM.
As to G236T (antibody), the Fold is 0.35 and the Kd was determined as 2460 nM.
For L235D/S267E/L328F (antibody) the same measures were 133 and 6.45 nM.
For L235Y/S267E/L328F (antibody) the same measures were 171 and 5.02 nM.
As for G236D (antibody), the Fold turned out to be 0.758 and the Kd worked out at 1130 nM.

In a further assay the target is recombinant human FcγRIIb protein (human) (UniProt P31994). Briefly: Biacore.
Chain of recombinant human FcγRIIb protein (human) (P31994 46-217 limits assumed): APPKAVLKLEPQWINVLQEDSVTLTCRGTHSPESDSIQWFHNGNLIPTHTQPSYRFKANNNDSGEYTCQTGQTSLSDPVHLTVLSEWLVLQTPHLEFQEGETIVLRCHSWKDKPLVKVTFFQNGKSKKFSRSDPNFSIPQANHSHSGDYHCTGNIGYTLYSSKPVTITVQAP
On to G236D/S267E/L328F (antibody), for which the Fold came out at 149 and the Kd turned out to be 9.87 nM.
The matching figures for L235F/S267E (antibody): 28.4 and 51.7 nM.
Consider IgG1/2ELLGG_S267E/L328F (antibody), for which the Fold is 221 and the Kd was determined as 6.63 nM.
As to L234E/S267E/L328F (antibody), the Fold was determined as 195 and the Kd is 7.53 nM.
For the substance G236D/S239D/S267E (antibody), the Fold amounted to 84.8 and the Kd is 17.3 nM.
For S267E/L328Y (antibody) the same measures were 43.1 and 34.1 nM.
For G236D/S267E/H268E (antibody) the same measures were 110 and 13.4 nM.
The matching figures for G236T (antibody): 0.00225 and 652000 nM.
Consider L235D/S267E/L328F (antibody), for which the Fold was determined as 80.4 and the Kd was 18.2 nM.
In the case of L235Y/S267E/L328F (antibody), the Fold was 187 and the Kd was determined as 7.83 nM.
For G236D (antibody) the same measures were 1.54 and 953 nM.

The target of another assay is human H131 FcγRIIa (human) (UniProt P12318). Briefly: Biacore.
Chain of human H131 FcγRIIa (human) (P12318 other isoform, or with tags, fused parts or gaps limits assumed): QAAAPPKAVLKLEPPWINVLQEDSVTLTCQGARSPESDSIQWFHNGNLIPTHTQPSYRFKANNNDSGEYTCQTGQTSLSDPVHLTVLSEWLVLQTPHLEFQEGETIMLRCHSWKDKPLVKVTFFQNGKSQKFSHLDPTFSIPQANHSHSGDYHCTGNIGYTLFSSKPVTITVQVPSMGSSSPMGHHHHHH
With G236D/S267E/L328F (antibody), the Fold worked out at 0.0301 and the Kd turned out to be 21500 nM.
The matching figures for L235F/S267E (antibody): 0.402 and 1610 nM.
The matching figures for IgG1/2ELLGG_S267E/L328F (antibody): 0.993 and 651 nM.
With L234E/S267E/L328F (antibody), the Fold stood at 0.0725 and the Kd is 8920 nM.
The matching figures for G236D/S239D/S267E (antibody): 0.217 and 2980 nM.
The substance S267E/L328Y (antibody) gave a Fold of 1.34 and a Kd of 481 nM.
For G236D/S267E/H268E (antibody) the same measures were 0.103 and 6300 nM.
The matching figures for G236T (antibody): 0.486 and 1330 nM.
The matching figures for L235D/S267E/L328F (antibody): 0.275 and 2350 nM.
In turn, L235Y/S267E/L328F (antibody) registered a Fold of 0.758 and a Kd of 853 nM.
G236D (antibody) showed a Fold of 0.167 and a Kd of 3870 nM.

In the next assay the target is human FcγRI (human) (UniProt P12314). Briefly: Biacore.
Chain of human FcγRI (human) (P12314 16-288 limits assumed): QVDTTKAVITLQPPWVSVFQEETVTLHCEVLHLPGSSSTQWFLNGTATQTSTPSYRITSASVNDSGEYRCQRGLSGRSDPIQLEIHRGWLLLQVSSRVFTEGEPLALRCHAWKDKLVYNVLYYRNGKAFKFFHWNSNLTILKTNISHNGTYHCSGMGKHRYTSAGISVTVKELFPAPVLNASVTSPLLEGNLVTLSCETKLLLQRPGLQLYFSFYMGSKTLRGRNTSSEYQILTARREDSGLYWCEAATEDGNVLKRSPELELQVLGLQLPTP
With G236D/S267E/L328F (antibody), the Fold turned out to be 0.0736 and the Kd amounted to 4.48 nM.
For L235F/S267E (antibody) the same measures were 0.0176 and 18.7 nM.
IgG1/2ELLGG_S267E/L328F (antibody) came in with a Fold of 2.35 and a Kd of 0.14 nM.
The matching figures for L234E/S267E/L328F (antibody): 0.0425 and 7.75 nM.
G236D/S239D/S267E (antibody) came in with a Fold of 0.0685 and a Kd of 4.81 nM.
For S267E/L328Y (antibody) the same measures were 0.224 and 1.47 nM.
For G236D/S267E/H268E (antibody) the same measures were 0.0902 and 3.65 nM.
G236T (antibody) registered a Fold of 0.0157 and a Kd of 21 nM.
For L235D/S267E/L328F (antibody) the same measures were 0.00057 and 573 nM.
With L235Y/S267E/L328F (antibody), the Fold came out at 0.00436 and the Kd came out at 75.5 nM.
The matching figures for G236D (antibody): 0.0211 and 15.6 nM.
